Residue numbers refer to the chain shown, from its start.

Experiment [1] concerns the target T1, human [1-305]-mouse chimeric EL (human; mouse, UniProt Q9WVG5 306-500).
T1 construct: Heparin extract, captured or detected by an anti-C2-tag antibody; also called human-mouse chimeric EL
T1 sequence: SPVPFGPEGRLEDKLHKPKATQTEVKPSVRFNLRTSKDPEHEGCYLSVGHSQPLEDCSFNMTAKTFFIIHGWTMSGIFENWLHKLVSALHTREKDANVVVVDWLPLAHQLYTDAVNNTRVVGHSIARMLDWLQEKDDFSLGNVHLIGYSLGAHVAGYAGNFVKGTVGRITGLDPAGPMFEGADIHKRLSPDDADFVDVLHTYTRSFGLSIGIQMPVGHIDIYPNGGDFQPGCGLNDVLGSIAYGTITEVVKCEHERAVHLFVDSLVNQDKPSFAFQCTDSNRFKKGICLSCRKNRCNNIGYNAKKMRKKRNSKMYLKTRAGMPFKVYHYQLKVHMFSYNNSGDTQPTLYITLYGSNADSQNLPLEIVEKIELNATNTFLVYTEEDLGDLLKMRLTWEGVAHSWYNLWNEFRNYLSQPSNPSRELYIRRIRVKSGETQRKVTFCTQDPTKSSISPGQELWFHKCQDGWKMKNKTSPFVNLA
The experiment in a line: Biacore; EL captured by anti-C2-tag Ab; bivalent fit. Here is the method: The binding affinities of anti-EL antibodies were measured using Biacore. […] Then, anti-EL humanized antibodies were added and the binding affinities were calculated by bivalent fitting of BIAevaluation software.
(In general: SPR reads the build-up and loss of mass on a sensor chip optically.)

Experiment [2] concerns the target T1, human [1-305]-mouse chimeric EL. Nature of the experiment: cell-based or functional assay.
In the next experiment the target is cynomolgus monkey EL (cynomolgus monkey). The experiment in a line: cell-based or functional assay.

B1: h55A1-F5 (antibody, V domains shown)
VH: QVQLVQSGAEVKKPGASVKVSCKASGYTFTNYGMNWVRQAPGQGLEWMGWINTYSGVPTYAGDFKGRFTFTLDTSTSTAYMELSSLRSEDTAVYYCARRGYYGRRYFDVWGKGTTVTVSS
VL: DIQLTQSPSSLSASVGDRVTITCKASQSVDYDVDSYMHWYQQKPGKAPKLLIYAASNLASGVPSRFSGSGSGTDFTLTISSLQPEDFATYYCQQTIEDPPTFGGGTKVEIK
notes: humanized
One may read the koff as the first-order rate constant of dissociation. As usually defined, the kon is the rate constant with which the complex forms. Turning to B1, in experiment [1], the Kd worked out at 0.11 nM, the koff was found to be 1.6e-05 s⁻¹ and the kon is 140000 M⁻¹ s⁻¹. Also, the “Neutralizing activity IC50” value in experiment [2] is 1.3 nM.

B2: h55A1-F2 (antibody, V domains shown)
VH: B1 VH with F68V, F70M, L72T, S84R, E89D
VL: EIVMTQSPATLSVSPGERATLSCKASQSVDYDVDSYMHWYQQKPGQAPRLLIYAASNLASGIPARFSGSGSGTEFTLTISSLQSEDFAVYYCQQTIEDPPTFGGGTKVEIK
notes: humanized
As for B2, in experiment [1], the Kd turned out to be 0.17 nM, the koff was 2.6e-05 s⁻¹ and the kon is 160000 M⁻¹ s⁻¹. Further, the “Neutralizing activity IC50” value in experiment [2] was determined as 2.1 nM.

B3: h55A1-F1 (antibody, V domains shown)
VH: B1 VH with A9S, V11L, T69V, T71S, T76V, M81L, E82Q, L83I, R87K, S88A
VL: B1 VL with L77F, F87I
notes: humanized
In experiment [1], B3 displayed a Kd of 0.084 nM, an off-rate (koff) of 1.7e-05 s⁻¹ and a kon of 200000 M⁻¹ s⁻¹. Besides, the “Neutralizing activity IC50” value in experiment [2] came to 1.9 nM.

B4: h55A1-F4 (antibody, V domains shown)
VH: B1 VH with F68V, F70M, L72T, S84R, E89D
VL: B2 VL with M4L, A9G, V13L, A64D, E74D, S81R, Q83E, S84P
notes: humanized
As for B4, in experiment [1], the Kd stood at 0.22 nM, the koff is 3e-05 s⁻¹ and the kon came out at 140000 M⁻¹ s⁻¹. Moreover, the “Neutralizing activity IC50” value in experiment [2] came to 2.4 nM.

B5: h55A1-F6 (antibody, V domains shown)
VH: B1 VH
VL: B2 VL
notes: humanized
Consider B5, for which, in experiment [1], the Kd is 0.3 nM, the koff was determined as 4.8e-05 s⁻¹ and the kon worked out at 160000 M⁻¹ s⁻¹. For the same molecule, in experiment [2], the “Neutralizing activity IC50” value turned out to be 2.3 nM.

B6: h55A1-F3 (antibody, V domains shown)
VH: B1 VH with F68V, F70M, L72T, S84R, E89D
VL: B1 VL
notes: humanized
For B6, in experiment [1], the Kd is 0.29 nM, the koff came out at 3.3e-05 s⁻¹ and the kon stood at 110000 M⁻¹ s⁻¹. In experiment [2], the “Neutralizing activity IC50” value came out at 1.1 nM.

B7: h53A11-S4 (antibody, V domains shown)
VH: QVQLVQSGAEVKKPGASVKVSCKASGYTFTDYTMHWVRQAPGQRLEWMGGINPYYGGTTYNEKFKDRVTITRDTSASTAYMELSSLRSEDTAVYYCARGDYYGGSYNYWGQGTTVTVSS
VL: EIVMTQSPATLSVSPGERATLSCRASQDISNSLHWYQQKPGQAPRLLIKYASQSISGIPARFSGSGSGTEFTLTISSLQSEDFAVYYCQQSNSWPYTFGQGTKLEIK
For B7, in the experiment with cynomolgus monkey EL, the “Neutralizing activity IC50” value was 12 nM.

B8: h55A1-S4 (antibody, V domains shown)
VH: QVQLVQSGSELKKPGASVKVSCKASGYTFTNYAMNWVRQAPGQGLEWMGWINTYSGVGTYAGDFKGRFVFSLDTSVSTAYLQISSLKAEDTAVYYCARRGFYGRRFFDVWGKGTTVTVSS
VL: DIVLTQSPASLAVSPGQRATITCKASQSVDYDVDSYMHWYQQKPGQPPKLLIYAASNLASGVPARFSGSGSGTDFTLTINPVEANDTANYYCQQTIEDPPTFGGGTKVEIK
notes: humanized
For B8, in experiment [1], the Kd was found to be 3 nM, the koff amounted to 0.00024 s⁻¹ and the kon is 80000 M⁻¹ s⁻¹. The “Neutralizing activity IC50” value in experiment [2] is 1.1 nM.

B9: h55A1-S5 (antibody, V domains shown)
VH: B8 VH
VL: B8 VL with Q94N
notes: humanized
In experiment [1], B9 showed a Kd of 12 nM, an off-rate constant (koff) of 0.00033 s⁻¹ and a kon of 27000 M⁻¹ s⁻¹. In experiment [2], the “Neutralizing activity IC50” value came to 1.3 nM.

B10: h55A1-S7 (antibody, V domains shown)
VH: B8 VH with M34L, D63E
VL: B8 VL with Q94N
notes: humanized
As to B10, in experiment [1], the Kd was determined as 5.1 nM, the koff amounted to 0.00055 s⁻¹ and the kon was found to be 110000 M⁻¹ s⁻¹. In addition, in experiment [2], the “Neutralizing activity IC50” value was found to be 1 nM.

B11: h55A1-S6 (antibody, V domains shown)
VH: B8 VH with M34L, D63E
VL: B8 VL
notes: humanized
In experiment [1], B11 displayed a Kd of 1.4 nM, a koff of 6.3e-05 s⁻¹ and a kon of 47000 M⁻¹ s⁻¹. Also, the “Neutralizing activity IC50” value in experiment [2] worked out at 1.2 nM.

B12: h55A1-S2 (antibody, V domains shown)
VH: B8 VH with A33G, M34L, G58P, F101Y
VL: B8 VL
notes: humanized
On to B12, for which, in experiment [1], the Kd worked out at 11 nM, the koff amounted to 0.00037 s⁻¹ and the kon is 35000 M⁻¹ s⁻¹. Further, in experiment [2], the “Neutralizing activity IC50” value worked out at 1.1 nM.

B13: h55A1-S3 (antibody, V domains shown)
VH: B8 VH with A33G, M34L, G58P, F101Y
VL: B8 VL with Q94N
notes: humanized
In experiment [1], B13 returned a Kd of 4.2 nM, a koff of 0.00051 s⁻¹ and a kon of 120000 M⁻¹ s⁻¹. For the same molecule, the “Neutralizing activity IC50” value in experiment [2] came to 1.2 nM.

B14: h16B3-S5 (antibody, V domains shown)
VH: EVQLVESGGGLVQPGGSLRLSCAASGFTFSGYTMSWVRQAPGKGLEWVSEISFARDRAFYPDTVKGRFTISRDNSKNTLYLQMNSLRAEDTAVYYCARLGGKNRDFWYFDLWGQGTTVTVSS
VL: DIVMTQSPDSLAVSLGERATINCRASESVEYYGTSLMQWYQQKPGQPPKLLIYAASNVESGVPDRFSGSGSGTDFTLTISSLQAEDVAVYYCQQSWKVPFTFGQGTKLEIK
notes: humanized
In experiment [1], B14 gave a Kd of 1 nM, a koff of 5.7e-05 s⁻¹ and a kon of 54000 M⁻¹ s⁻¹. The “Neutralizing activity IC50” value in experiment [2] was 1.2 nM.

B15: h16B3-F1 (antibody, V domains shown)
VH: B14 VH with K102R, R104H, F106Y, L111V
VL: DIQMTQSPSSLSASVGDRVTITCRASESVEYYGTSLMQWYQQKPGKAPKLLIYAASNVESGVPSRFSGSGSGTDFTLTISSLQPEDFATYYCQQSWKVPFTFGQGTKLEIK
notes: humanized
In experiment [1], B15 gave a Kd of 5.2 nM, a koff of 0.0002 s⁻¹ and a kon of 38000 M⁻¹ s⁻¹. In experiment [2], the “Neutralizing activity IC50” value was 2.3 nM.

B16: h16B3-F2 (antibody, V domains shown)
VH: B14 VH with K102R, R104H, F106Y, L111V
VL: EIVMTQSPATLSVSPGERATLSCRASESVEYYGTSLMQWYQQKPGQAPRLLIYAASNVESGIPARFSGSGSGTEFTLTISSLQSEDFAVYYCQQSWKVPFTFGQGTKLEIK
notes: humanized
In experiment [1], B16 gave a Kd of 3.8 nM, an off-rate constant (koff) of 0.00011 s⁻¹ and a kon of 29000 M⁻¹ s⁻¹. Moreover, the “Neutralizing activity IC50” value in experiment [2] was found to be 2.4 nM.

B17: h16B3-S6 (antibody, V domains shown)
VH: B14 VH
VL: B14 VL with K97R
notes: humanized
In experiment [1], B17 came in with a Kd of 1 nM, a koff of 5.8e-05 s⁻¹ and an association rate constant (kon) of 60000 M⁻¹ s⁻¹. Further, the “Neutralizing activity IC50” value in experiment [2] worked out at 1 nM.

B18: h16B3-S8 (antibody, V domains shown)
VH: B14 VH with G31A, E50D
VL: B14 VL with K97R
notes: humanized
Turning to B18, in experiment [1], the Kd stood at 0.78 nM, the koff came to 4e-05 s⁻¹ and the on-rate (kon) is 52000 M⁻¹ s⁻¹. In addition, in experiment [2], the “Neutralizing activity IC50” value was found to be 1.4 nM.

B19: h16B3-S3 (antibody, V domains shown)
VH: B14 VH with R104H, L111V
VL: B14 VL
notes: humanized
In experiment [1], B19 returned a Kd of 4.5 nM, an off-rate (koff) of 0.00013 s⁻¹ and a kon of 30000 M⁻¹ s⁻¹. The “Neutralizing activity IC50” value in experiment [2] came to 1.9 nM.

B20: h16B3-S4 (antibody, V domains shown)
VH: B14 VH with R104H, L111V
VL: B14 VL with K97R
notes: humanized
In experiment [1], B20 had a Kd of 3 nM, an off-rate (koff) of 0.00018 s⁻¹ and a kon of 61000 M⁻¹ s⁻¹. Moreover, the “Neutralizing activity IC50” value in experiment [2] was found to be 1.7 nM.

B21: h16B3-F3 (antibody, V domains shown)
VH: B14 VH with K102R, R104H, F106Y, L111V
VL: B16 VL with M4L, A9G, V13L, A64D, E74D, S81R, Q83E, S84P
notes: humanized
Turning to B21, in experiment [1], the Kd is 10 nM, the koff stood at 0.0002 s⁻¹ and the association rate constant (kon) worked out at 19000 M⁻¹ s⁻¹. The “Neutralizing activity IC50” value in experiment [2] was 2 nM.

B22: h16B3-S7 (antibody, V domains shown)
VH: B14 VH with G31A, E50D
VL: B14 VL
notes: humanized
Take B22: in experiment [1], the Kd turned out to be 1.2 nM, the koff is 5.9e-05 s⁻¹ and the kon was found to be 50000 M⁻¹ s⁻¹. Moreover, the “Neutralizing activity IC50” value in experiment [2] was 1.4 nM.

(Values after patent publication US20200071424A1 (SHIONOGI, published 2020).)
